Laboratory results as given in patent US11719696B2, “Methods and compounds for diagnosing threonyl-tRNA synthetase-associated diseases and conditions” (The University of Vermont and State Agricultural College, priority 2012, dated 2023).

Assays:
[1] = test system: Human umbilical vein endothelial cells (HUVECs); assay: In vitro endothelial tube formation assay; assay type: cell-based; settings: 100 nM purified recombinant protein in low-serum media (0.2% FBS), 6 h
Experimental: In vitro Tube Formation Assay—Tube formation assays were performed as described (Arnaoutova and Kleinman 2010; Cassavaugh, Hale et al., 201). Human Umbilical Vein Endothelial Cells (HUVECs) were seeded in 48-well plates (1.5×10^4 cells/well) coated with 100 μl of Matrigel™ Basement Membrane Matrix Growth Factor Reduced (BD Biosciences, San Jose, Calif.) and incubated in Clonetics® EGM®-2 complete media (Lonza, Annandale, N.J.) or EGM®-2 with reduced serum (0.2% fetal bovine serum). Cells were incubated at 37° C. for 6 h then fixed in 10% formalin. Fixed samples were imaged by phase-contrast microscopy or stained with Oregon Green 488 Phalloidin (Molecular Probes, Eugene, Oreg.) then imaged with fluorescence microscopy (2× objective). Number of tubes and tube lengths (in pixels) were quantified using the Simple Neurite Tracer (Longair, Baker et al. 2011) plug-in on ImageJ software (NIH). Statistical analysis of one-way ANOVA was performed with GraphPad Software. Multiple comparisons were performed using the Tukey Test.

HUVECs [2] = assay: Endothelial cell proliferation assay (alamarBlue); assay type: cell-based, Human; settings: HUVECs in low serum (0.2% FBS) media
Experimental: Endothelial Cell Proliferation Assay—The […] alamarBlue® (Invitrogen) reagent was used to assess cell proliferation (Ahmed, Gogal et al. 1994). HUVECs were seeded in a 96-well dish (1×10^3 cells/well) and grown for 48 h in EGM®-2 media. Cells were incubated in 0.2% FBS EGM®-2 media or EGM®-2 complete media as indicated; VEGF (50 ng/ml) and media alone served as controls. After 48 h, 72 h, or 96 h in culture, 10 μl/well premixed alamarBlue® (Invitrogen) was added and after 3 h at 37° C. the amount of reduced alamarBlue® was quantified by fluorescence (excitation at 530 nm, emission at 590 nm) on a microplate reader (Synergy™ HT, BioTek, Winooski, Vt.).

[3] = test system: chorioallantoic membrane (CAM); assay: Chick chorioallantoic membrane (CAM) assay; assay type: in vivo, chicken
Experimental: Chick Chorioallantoic Membrane Assay—Fertilized chicken eggs (Sunrise Farms, Catskill, N.Y.) day 1-2 post-laying were incubated in a humidified incubator at 37° C. for 72 h. Cleaned eggs were cracked and plated in a sterile 10 cm^2 tissue culture-treated dish and incubated at 37° C. for another 7 days. On developmental day 10, 1 mm sterile gelatin sponge pieces (Surgifoam®; Johnson & Johnson Wound Management, Somerville, N.J.) were placed within the outer one-third of the membrane between large vessels. 40 μg/ml human bFGF and 2 μg/ml human VEGF were used as pro-angiogenic control compounds; 100 μg/mL retinoic acid (Sigma-Aldrich, St. Louis, Mo.) diluted in phosphate-buffered saline (PBS) was used as an angiostatic control. All compounds were applied in 10 μl to the CAM every 24 h for 72 h. Images were taken using a Leica MZ6 stereomicroscope every 24 h. Compounds were scored according to a modified version of Intensity Scoring as previously described (Ribatti, Nico et al. 2006). Briefly, each experimental condition was given a blinded score from 0-5 based on the change in the extent of vessel convergence and formation in proximity to the sponge from day 0 to day 3. Total score is averaged individual experimental condition scores from at least 15 replicates.
Fertilized chicken embryos were cultured ex-ova and, starting at developmental day 10, agents were applied daily to gelfoam sponges on the CAM. Images were recorded daily over 72 h and scored blindly according to a modified version Intensity Scoring as previously described (Ribatti, Nico, 2006). Additional details regarding methods are provided in the Methods and Materials section of Example 1.

HUVECs [4] = assay: VEGF secretion by ELISA; assay type: cell-based, Human; settings: purified recombinant TARS added to cell media, 24 h
Experimental: ELISA and Lactate Dehydrogenase Assays—Confluent HUVEC cultures (passage 4) were incubated at 37° C. in Clonetics® EGM®-2 modified with 0.2% fetal bovine serum with the addition of 50 ng/ml human VEGF or 50 ng/ml human TNF-α for 6 h as indicated. Culture media supernatants were tested for levels of secreted TARS protein using the Threonyl tRNA Synthetase (TARS) ELISA Kit (USCN Life Science, Wuhan, Hubei, PRC) according to manufacturer's instructions. Cell membrane integrity was confirmed using the lactate dehydrogenase assay CytoTox-ONE™ Homogeneous Membrane Integrity Assay (Promega, Madison, Wis.) according to manufacturer's instructions and reported as percent cytotoxicity relative to a lysis control. Levels of secreted VEGF were measured using the Human VEGF ELISA kit (Thermo Scientific) per manufacturer's instructions.

B1: TARS: N-terminal His6-tagged human threonyl-tRNA synthetase expressed and purified from E. coli (protein, UniProt P26639 1-723, looked up)
Threonine--tRNA ligase 1, …: MFEEKASSPSGKMGGEEKPIGAGEEKQKEGGKKKNKEGSGDGGRAELNPWPEYIYTRLEMYNILKAEHDSILAEKAEKDSKPIKVTLPDGKQVDAESWKTTPYQIACGISQGLADNTVIAKVNNVVWDLDRPLEEDCTLELLKFEDEEAQAVYWHSSAHIMGEAMERVYGGCLCYGPPIENGFYYDMYLEEGGVSSNDFSSLEALCKKIIKEKQAFERLEVKKETLLAMFKYNKFKCRILNEKVNTPTTTVYRCGPLIDLCRGPHVRHTGKIKALKIHKNSSTYWEGKADMETLQRIYGISFPDPKMLKEWEKFQEEAKNRDHRKIGRDQELYFFHELSPGSCFFLPKGAYIYNALIEFIRSEYRKRGFQEVVTPNIFNSRLWMTSGHWQHYSENMFSFEVEKELFALKPMNCPGHCLMFDHRPRSWRELPLRLADFGVLHRNELSGALTGLTRVRRFQQDDAHIFCAMEQIEDEIKGCLDFLRTVYSVFGFSFKLNLSTRPEKFLGDIEVWDQAEKQLENSLNEFGEKWELNSGDGAFYGPKIDIQIKDAIGRYHQCATIQLDFQLPIRFNLTYVSHDGDDKKRPVIVHRAILGSVERMIAILTENYGGKWPFWLSPRQVMVVPVGPTCDEYAQKVRQQFHDAKFMADIDLDPGCTLNKKIRNAQLAQYNFILVVGEKEKISGTVNIRTRDNKVHGERTISETIERLQQLKEFRSKQAEEEF
modifications: N-terminal His6 tag
notes: N-terminal His6-tagged human threonyl-tRNA synthetase expressed and purified from E. coli
number of tube branches on addition of protein [1]: significantly increased the number of tube branches
cell proliferation with protein (HUVECs [2]): did not exert a significant effect
sensitivity of the protein's CAM angiogenic effect to BC194 ([3]; protein co-applied with BC194): sensitive to BC194
CAM vessel formation / vascularization on application of protein ([3]; purified protein applied daily to sponge on CAM, 72 h): stimulated vessel formation
secretion of VEGF (ELISA) (HUVECs [4]): did not induce secretion of VEGF
